Test results taken from patent US7897573B2, “Selective VPAC2 receptor peptide agonists” (priority 2005, dated 2011).
*1 amine or outer side, *2 acyl side, *3 side chain or, on linkers, in order; H or OH if unused. Primed or numbered codes have the meaning given here. [ ]: non-standard residue; d: D form. The star is where a group is joined. Tyr(OMe)(3) = Tyr, methoxy (Y(OMe)), COc1ccc(C[C@H](N[*:1])C(=O)[*:2])cc1; WPEG40K = not defined here; Orn = NCCC[C@H](N)C(=O)O; Abu = CC[C@H](N)C(=O)O; Hexanoyl = CCCCCC(=O)*; Aib = CC(C)(N)C(=O)O

Tests used:
[1] = Rat serum stability study (DiscoveRx cAMP read-out on CHO-VPAC2 cells); conditions: EC50, 4° C./EC50, 37° C., values >100% may represent release of intact peptide from the PEG conjugate; for 24 h stab (%): 24 h in rat serum at 37° C.; for 72 h stab (%): 72 h in rat serum at 37° C.
Method: In order to determine the stability of VPAC2 receptor peptide agonists in rat serum, CHO-VPAC2 cells clone #6 (96 well plates/50,000 cells/well and 1 day culture), PBS 1× (Gibco), the peptides for the analysis in a 100 μM stock solution, rat serum from a sacrificed normal Wistar rat, aprotinin, and a DiscoveRx assay kit are obtained. The rat serum is stored at 4° C. until use and is used within two weeks.
The aliquot is stored with aprotinin at 4° C. The aliquot is stored without aprotinin at 37° C. The aliquots are incubated for 24 or 72 hours.
On Day 1, after incubation of the aliquots prepared on day 0 for 24 or 72 hours, an incubation buffer containing PBS+1.3 mM CaCl2, 1.2 mM MgCl2, 2 mM glucose, and 0.25 mM IBMX is prepared. A plate with 11 serial 5× dilutions of peptide for the 4° C. and 37° C. aliquot is prepared for each peptide studied. […] The plate(s) are washed with cells twice in incubation buffer. The plates are allowed to hold 50 μL incubation media per well for 15 minutes. 50 μL solution per well is transferred to the cells from the plate prepared with 11 serial 5× dilutions of peptide for the 4° C. and 37° C. aliquot for each peptide studied, using the maximal concentrations that are indicated by the primary screen, in duplicate. This step dilutes the peptide concentration by a factor of two. The cells are incubated at room temperature for 30 minutes. The supernatant is removed. 40 μL/well of the DiscoveRx antibody/extraction buffer is added. The cells are incubated on the shaker (300 rpm) for 1 hour. Normal procedure with the DiscoveRx kit is followed. cAMP standards are included in column 12. EC50 values are determined from the cAMP assay data.

Human VPAC1 Receptor = target: T1, Human VPAC1 Receptor (Homo sapiens, UniProt P32241); test: Filter binding assay, 125I-labeled VIP, membranes of cells transiently transfected with human VPAC1; conditions: 125I-labeled VIP tracer
T1 construct: expressed in transfected cells
T1 sequence (P32241 31-457): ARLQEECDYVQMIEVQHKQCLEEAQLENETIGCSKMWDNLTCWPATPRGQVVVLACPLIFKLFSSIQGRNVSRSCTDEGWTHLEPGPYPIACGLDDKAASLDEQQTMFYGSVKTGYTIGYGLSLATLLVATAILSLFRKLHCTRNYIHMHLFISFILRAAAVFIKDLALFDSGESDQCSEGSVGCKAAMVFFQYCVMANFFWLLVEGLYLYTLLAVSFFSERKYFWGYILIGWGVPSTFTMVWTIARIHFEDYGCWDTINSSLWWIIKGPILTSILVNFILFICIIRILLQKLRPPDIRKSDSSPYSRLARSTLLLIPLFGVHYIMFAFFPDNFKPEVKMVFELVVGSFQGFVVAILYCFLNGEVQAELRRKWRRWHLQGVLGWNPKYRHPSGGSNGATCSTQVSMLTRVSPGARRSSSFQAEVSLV
Method: For this assay, the solutions and equipment include:
Presoak solution: 0.5% Polyethyleneamine in Aqua dest
Buffer for flushing filter plates: 25 mM HEPES pH 7.4
Blocking buffer: 25 mM HEPES pH 7.4; 0.2% protease free BSA
Assay buffer: 25 mM HEPES pH 7.4; 0.5% protease free BSA
Dilution and assay plate: PS-Microplate, U form
Filtration Plate Multiscreen FB Opaque Plate; […] Type B Glasfiber filter
In order to prepare the filter plates, the presoak solution is aspirated by vacuum filtration. The plates are flushed twice with 200 μL flush buffer. 200 μL blocking buffer is added to the filter plate. The filter plate is then incubated with 200 μL presoak solution for 1 hour at room temperature.
The assay plate is filled with 25 μL assay buffer, 25 μL membranes (2.5 μg) suspended in assay buffer, 25 μL agonist in assay buffer, and 25 μL tracer (about 40000 cpm) in assay buffer. The filled plate is incubated for 1 hour with shaking.
The transfer from assay plate to filter plate is conducted. The blocking buffer is aspirated by vacuum filtration and washed two times with flush buffer. 90 μL is transferred from the assay plate to the filter plate. The 90 μL transferred from assay plate is aspirated and washed three times with 200 μL flush buffer. The plastic support is removed. It is dried for 1 hour at 60° C. 30 μL Microscint is added. The count is performed.

[2] = Pharmacokinetic profiles of PEGylated peptides in Fisher 344 rats; assay type: in vivo, rat; conditions: 100 μg agonist/kg, plasma RIA, mean N = 3
Method: Pharmacokinetic profiles of PEGylated peptides. Healthy Fisher 344 rats (3 animals per group) were injected with 100 μg agonist/kg (agonist amount based on peptide content and dissolved in PBS buffer). Blood samples were drawn 3, 12, 24, 48, 72, 96 and 168 hour post dosing and the peptide content in plasma was analysed by a radio-immunoassay (RIA) directed against the N-terminus of the peptide. PK parameters were then calculated using a model-independent method (WinNonlin Pro, Pharsight Corp., Mountain View, Calif., USA).

Substance	24 h stab (%) [1]	IC50 (Human VPAC1 Receptor)	also measured
C6-HSDAVFTEQY(OMe)TOrnLRAibQLAAbuAibOrnYLQSIOrnOrnC(PEG4OK)GGPSSGAPPPS-NH2 (HSDAVFTEQYTXLRXQLAXXXYLQSIXXCGGPSSGAPPPS; C6 acyl, PEG40K on Cys, C-terminal amide; Synthetic sequence PEGylated VPAC2 receptor agonist) [Agonist P566]	152%	–	–
C6-HSDAVFTEQY(OMe)TOrnLRK(WPEG40K)QVAAAibOrnYLQSIOrnOrnGGPSSGAPPPS-NH2 (HSDAVFTEQYTXLRXQVAAXXYLQSIXXGGPSSGAPPPS; C6 acyl, PEG40K on Lys, C-terminal amide; Synthetic sequence PEGylated VPAC2 receptor agonist) [Agonist P529]	–	–	72 h stab (%) [1]: 119%
C6-HSDAVFTEQY(OMe)TOrnLRK(CO(CH2)2SPEG40K)QVAAAibOrnYLQSIOrnOrnGGPSSGAPPPS-NH2 (HSDAVFTEQYTXLRXQVAAXXYLQSIXXGGPSSGAPPPS; N-terminal C6 acyl, PEG40K on Lys, C-terminal amide; Synthetic sequence PEGylated VPAC2 receptor agonist) [Agonist P485]	65%	–	–
C6-HSDAVFTEQY(OMe)TOrnLRAibQVAAAibOrnYLQAibIOrnOrnGGPSSGAPPPC(PEG40K)-NH2 (HSDAVFTEQYTXLRXQVAAXXYLQXIXXGGPSSGAPPPC; C6 acyl, PEG40K on Cys, C-terminal amide; Synthetic sequence PEGylated VPAC2 receptor agonist) [Agonist P509]	–	> 25000 nM	–
C6-HSDAVFTEQY(OMe)TOrnLRAibQLAAbuAibOrnYLQAibIOrnOrnGGPSSGAPPPC(PEG20K)C(PEG20K)-NH2 (HSDAVFTEQYTXLRXQLAXXXYLQXIXXGGPSSGAPPPCC; C6 acyl, two PEG20K, C-terminal amide; Synthetic sequence PEGylated VPAC2 receptor agonist) [Agonist P517]	–	> 25000 nM	–
C6-HSDAVFTEQY(OMe)TOrnLRAibQVAAAibC(PEG40K)YLQSIOrnOrnGGPSSGAPPPS-NH2 (HSDAVFTEQYTXLRXQVAAXCYLQSIXXGGPSSGAPPPS; C6 acyl; PEG40K; non-natural residues; amide; Synthetic sequence PEGylated VPAC2 receptor peptide agonist) [Agonist P460]	–	> 25000 nM	–
C6-HSDAVFTEQY(OMe)TOrnLRAibQVAAK(CO(CH2)2SPEG40K)OrnYLQSIOrnOrnGGPSSGAPPPS-NH2 (HSDAVFTEQYTXLRXQVAAXXYLQSIXXGGPSSGAPPPS; N-terminal C6 acyl, PEG40K on Lys, C-terminal amide; Synthetic sequence PEGylated VPAC2 receptor agonist) [Agonist P475]	61%	–	–
C6-HSDAVFTEQY(OMe)TOrnLRAibQLAAbuAibOrnYLQAibC(PEG40K)OrnOrnGGPSSGAPPPS-NH2 (HSDAVFTEQYTXLRXQLAXXXYLQXCXXGGPSSGAPPPS; C6 acyl, PEG40K on Cys, C-terminal amide; Synthetic sequence PEGylated VPAC2 receptor agonist) [Agonist P541]	–	> 25000 nM	–
C6-HSDAVFTEQY(OMe)TOrnLRAibQLAAbuAibOrnYLQSIOrnOrnGGPSSGAPPPC(PEG20K)C(PEG20K)-NH2 (HSDAVFTEQYTXLRXQLAXXXYLQSIXXGGPSSGAPPPCC; C6 acyl, two PEG20K, C-terminal amide; Synthetic sequence PEGylated VPAC2 receptor agonist) [Agonist P523]	–	–	72 h stab (%) [1]: 281%
C6-HSDAVFTEQY(OMe)TOrnLRAibQVAAAibOrnYLQSK(WPEG40K)OrnOrnGGPSSGAPPPS-NH2 (HSDAVFTEQYTXLRXQVAAXXYLQSXXXGGPSSGAPPPS; C6 acyl, PEG40K on Lys, C-terminal amide; Synthetic sequence PEGylated VPAC2 receptor agonist) [Agonist P535]	–	> 25000 nM	–
C6-HSDAVFTEQY(OMe)TOrnLRAibQVAAAibK(W-PEG40K)YLQSIOrnOrnGGPSSGAPPPS-NH2 (HSDAVFTEQYTXLRXQVAAXXYLQSIXXGGPSSGAPPPS; C6 acyl; PEG40K; non-natural residues; amide; Synthetic sequence PEGylated VPAC2 receptor peptide agonist) [Agonist P410]	–	> 25000 nM	–
C6-HSDAVFTEQY(OMe)TOrnLRAibQVAAAibOrnYLQSIOrnK(WPEG40K)OrnGGPSSGAPPPS-NH2 (HSDAVFTEQYTXLRXQVAAXXYLQSIXXXGGPSSGAPPPS; C6 acyl; PEG40K; non-natural residues; amide; Synthetic sequence PEGylated VPAC2 receptor peptide agonist) [Agonist P454]	–	> 25000 nM	–
C6-HSDAVFTEQY(OMe)TOrnLRAibQVC(PEG40K)AAibOrnyLQSIOrnOrnGGPSSGAPPPS-NH2 [Agonist P478]	34%	–	–
C6-HSDAVFTEQY(OMe)TOrnLRK(WPEG40K)QLAAbuAibOrnYLQAibIOrnOrnGGPSSGAPPPS-NH2 (Hexanoyl-HSDAVFTEQ[Tyr(OMe)(3)]T[Orn]LRK(WPEG40K)QLA[Abu][Aib][Orn]YLQ[Aib]I[Orn][Orn]GGPSSGAPPPS-NH2; reading uncertain) [Agonist P557]	131%	–	–
C6-HSDAVFTEQY(OMe)TOrnLRAibQVAK(CO(CH2)2SPEG20K)AibOrnYLQSIOrnOrnGGPSSGAPPPC(PEG20K)-NH2 (HSDAVFTEQYTXLRXQVAXXXYLQSIXXGGPSSGAPPPC; C6 acyl, two PEG20K, C-terminal amide; Synthetic sequence PEGylated VPAC2 receptor agonist) [Agonist P492]	131%	–	–
C6-HSDAVFTEQY(OMe)TOrnLRAibQLAAbuAibOrnYLQSC(PEG40K)OrnOrnGGPSSGAPPPS-NH2 (HSDAVFTEQYTXLRXQLAXXXYLQSCXXGGPSSGAPPPS; C6 acyl, PEG40K on Cys, C-terminal amide; Synthetic sequence PEGylated VPAC2 receptor agonist) [Agonist P543]	119%	–	–
C6-HSDAVFTEQY(OMe)TOrnLRAibQVAAAibOrnYLQSIOrnK(CO(CH2)2SPEG20K)OrnGGPSSGAPPPC(PEG20K)-NH2 (HSDAVFTEQYTXLRXQVAAXXYLQSIXXXGGPSSGAPPPC; C6 acyl, two PEG20K, C-terminal amide; Synthetic sequence PEGylated VPAC2 receptor agonist) [Agonist P499]	–	> 25000 nM	AUC0-last [2]: 6650 ng·h/mL; Cl/F [2]: 15 mL/h/kg; Cmax [2]: 132 ng/mL; Tmax [2]: 24 h; T½ [2]: 25 h
C6-HSDAVFTEQY(OMe)TOrnLRAibQVAAAibOrnYLQSC(PEG20K)OrnOrnGGPSSGAPPPC(PEG20K)-NH2 (HSDAVFTEQYTXLRXQVAAXXYLQSCXXGGPSSGAPPPC; C6 acyl, two PEG20K, C-terminal amide; Synthetic sequence PEGylated VPAC2 receptor agonist) [Agonist P503]	174%	–	–
